Experimental data: article PMC7757244

These substances were tested against Mut FcγRIIIa (human) (UniProt P08637) (assay: SPR).
UniProt P08637, sequence (P08637 17-254): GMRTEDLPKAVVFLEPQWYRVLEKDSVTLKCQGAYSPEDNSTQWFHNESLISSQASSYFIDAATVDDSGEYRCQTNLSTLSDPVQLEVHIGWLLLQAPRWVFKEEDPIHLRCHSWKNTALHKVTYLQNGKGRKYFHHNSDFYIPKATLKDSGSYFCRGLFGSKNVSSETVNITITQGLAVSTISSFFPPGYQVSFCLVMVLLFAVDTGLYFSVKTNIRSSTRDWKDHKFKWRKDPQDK

| Kd [nM] | koff [s⁻¹] | kon [M⁻¹ s⁻¹] | Substance |
| --- | --- | --- | --- |
| 1380 | 0.0544 | 39600 | Expi293-Rituximab (antibody) |
| 2520 | 0.0893 | 36200 | ExpiCHO-Trastuzumab (antibody) |
| 2030 | 0.0803 | 39900 | ExpiCHO-Rituximab (antibody) |
| 1950 | 0.0583 |  | Expi293-Trastuzumab (antibody) |
